The record followed here is patent US20260193377A1.

In experiment [1] the target is GCC expressed on T84 cells (UniProt P25092). The experiment can be described thus: flow cytometry on T84 cells expressing GCC, 300 nm [sic], PE-anti human Fc secondary; Blank 15.0. (In general: In flow cytometry, cells or beads pass a laser one at a time.)
Experiment [2] has the same target. The experiment is described as follows: flow cytometry on T84 cells expressing GCC, 300 nm [sic], PE-anti human Fc secondary; Blank 30.7.

GCC expressed on T84 cells, sequence (P25092 24-1073 limits assumed): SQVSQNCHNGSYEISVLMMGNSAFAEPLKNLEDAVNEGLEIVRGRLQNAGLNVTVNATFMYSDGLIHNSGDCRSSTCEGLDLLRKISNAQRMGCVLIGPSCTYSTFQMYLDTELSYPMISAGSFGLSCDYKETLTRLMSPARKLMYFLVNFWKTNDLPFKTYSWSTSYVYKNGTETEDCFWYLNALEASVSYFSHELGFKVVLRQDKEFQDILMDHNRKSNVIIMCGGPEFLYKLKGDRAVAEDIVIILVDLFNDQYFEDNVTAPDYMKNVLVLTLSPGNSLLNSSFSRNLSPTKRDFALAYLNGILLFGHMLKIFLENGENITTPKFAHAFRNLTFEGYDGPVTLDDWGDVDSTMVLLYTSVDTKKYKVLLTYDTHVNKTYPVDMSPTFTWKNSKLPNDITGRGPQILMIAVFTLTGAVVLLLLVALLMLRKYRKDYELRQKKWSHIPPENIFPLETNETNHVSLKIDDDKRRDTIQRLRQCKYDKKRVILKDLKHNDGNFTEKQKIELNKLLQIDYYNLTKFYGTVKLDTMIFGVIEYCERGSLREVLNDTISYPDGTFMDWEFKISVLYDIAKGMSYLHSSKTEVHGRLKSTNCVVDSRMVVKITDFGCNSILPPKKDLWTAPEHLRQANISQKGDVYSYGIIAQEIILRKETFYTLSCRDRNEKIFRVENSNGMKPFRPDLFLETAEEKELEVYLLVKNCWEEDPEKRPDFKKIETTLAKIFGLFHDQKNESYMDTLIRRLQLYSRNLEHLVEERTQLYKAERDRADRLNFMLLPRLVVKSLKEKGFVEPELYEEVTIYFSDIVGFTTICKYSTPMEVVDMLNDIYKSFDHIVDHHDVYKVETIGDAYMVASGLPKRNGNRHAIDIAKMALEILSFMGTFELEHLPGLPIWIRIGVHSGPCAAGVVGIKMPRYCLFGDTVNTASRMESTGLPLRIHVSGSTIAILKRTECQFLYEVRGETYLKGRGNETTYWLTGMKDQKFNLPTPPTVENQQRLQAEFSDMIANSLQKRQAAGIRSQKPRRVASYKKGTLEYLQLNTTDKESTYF

Consider Human IgG1 isotype (antibody), for which the Geometric mean MFI stood at 17.7 in experiment [1] and 30.7 in experiment [2].
